Assay [1] has as its target T1, PD-L1 Protein, Human, Recombinant (His Tag) (human, UniProt Q9NZQ7 19-239).
T1 construct: Bought protein; also called QPP09.1; SinoBiologic 10084-H08H
The experiment in a line: SPR Biacore T200, antibody captured, PD-L1 His as analyte, 1:1 binding.

Assay [2] concerns the target T2, PD-L1 Protein, Cynomolgus, Recombinant (His Tag) (cynomolgus).
T2 construct: Bought protein; also called QPP10.1; SinoBiologic 90251-C08H
Described as above.

For assay [3], the target named is T3, Claudin 18.2 (CLDN18.2), expressed on CHOS-CLDN 18.2 / HEK293-CLDN 18.2 / HCC827-CLDN 18.2 cells (human, UniProt P56856-2 1-261).
T3 construct: whole, on cells; The species is not repeated for the CHOS-CLDN 18.2 cells; also called claudin-18A2
The assay is described as follows: FACS, CHOS-CLDN18.2 cells.

Assay [4] concerns the target T3, Claudin 18.2 (CLDN18.2), expressed on …. The experiment in a line: FACS, CHOS-CLDN18.2 cells, 5 µg/ml.
For assay [5] the target is unchanged. The assay is described as follows: FACS, CHOS-CLDN18.2 cells, 20 µg/ml.
The target is the same in assay [6]. The experiment in a line: FACS, CHOS-CLDN18.2 cells, 10 µg/ml.
Assay [7] shares this target. The assay is described as follows: FACS, CHOS-CLDN18.2 cells, 0.005 µg/ml.
Assay [8] shares this target. The assay is described as follows: FACS, CHOS-CLDN18.2 cells, 0.020 µg/ml.
Assay [9] shares this target. The experiment in a line: FACS, CHOS-CLDN18.2 cells, 0.078 µg/ml.
The target is the same in assay [10]. The assay is described as follows: FACS, CHOS-CLDN18.2 cells, 0.313 µg/ml.
Assay [11] has the same target. The experiment in a line: FACS, CHOS-CLDN18.2 cells, 1.250 µg/ml.
The target is the same in assay [12]. The experiment in a line: FACS, CHOS-CLDN18.2 cells, 0 µg/ml (background).
The target is the same in assay [13]. The assay is described as follows: FACS, MFI on CHOS-CLDN18.2 over MFI on CHOS-CLDN18.1, 10 µg/ml.

T1 sequence (Q9NZQ7 19-239 limits assumed): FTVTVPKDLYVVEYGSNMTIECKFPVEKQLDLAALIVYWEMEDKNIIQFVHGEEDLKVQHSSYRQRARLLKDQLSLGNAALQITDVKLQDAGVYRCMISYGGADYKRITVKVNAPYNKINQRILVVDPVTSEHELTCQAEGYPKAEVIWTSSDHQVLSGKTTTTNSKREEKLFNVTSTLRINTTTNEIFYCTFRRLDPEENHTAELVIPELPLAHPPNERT

B1: QP325 (Fc fusion)
chain: EVQLLESGGGLVQPGGSLRLSCAASGFTYGTYAMSWFRQAPGKGLEGVACIDIYGRTSYTDPVKGRFTISQDNSKNTLYLQMNSLRAEDTAVYYCAARDFGYCTASWVHEGFSRYWGQGTLVTVSS
notes: Humanization design of QP1166; VHH-Fc; also called 1166-V3; QD325; not shown: human IgG1-FC constant region fused to the C terminal of the VHH
B1: in assay [1], the Kd was 10.7 nM, the koff was 0.004 s⁻¹ and the kon came to 375000 M⁻¹ s⁻¹. For the same molecule, in assay [2], the Kd amounted to 19.6 nM, the koff is 0.00416 s⁻¹ and the kon turned out to be 212000 M⁻¹ s⁻¹.

B2: QP1166 (Fc fusion)
chain: QVQLVESGGDSVQPGGSLRLSCAASGFTYGTYAMSWFRQAPGKEREGVACIDIYGRTSYTDPVKGRFTISQDNAKNTLYLQMNSLKPEDTAMYYCAARDFGYCTASWVHEGFSRYWGQGTQVTVSS
notes: Chimeric antibody before humanization; also called QD1166; nanobody QP1166; not shown: Fc part: called chimeric antibody, cloned in vector VH-FC-pQD
Consider B2, for which, in assay [1], the Kd was 2.63 nM, the koff stood at 0.00255 s⁻¹ and the kon was 968000 M⁻¹ s⁻¹. Moreover, in [2], the Kd was 5.6 nM, the koff was found to be 0.00266 s⁻¹ and the kon stood at 475000 M⁻¹ s⁻¹.

B3: QP1162 (Fc fusion)
chain: QVQLVESGGGSVQSGGSLRLSCAASGFTYGTYAMSWFRQAPGKEREGVACIDIYGRASYTDPVKGRFTISQDNAKNTLYLQMNSLKPEDTAMYYCAARDFGYCTASWVHEGFSRYWGQGTQVTVSS
notes: Chimeric antibody before humanization; also called QD1162; nanobody QP1162; not shown: Fc part: called chimeric antibody, cloned in vector VH-FC-pQD
Regarding B3, in assay [1], the Kd was found to be 2.77 nM, the koff is 0.00379 s⁻¹ and the kon was 1.37e+06 M⁻¹ s⁻¹. Also, in [2], the Kd was 5.6 nM, the koff is 0.00401 s⁻¹ and the kon is 715000 M⁻¹ s⁻¹.

B4: QP14641461 (antibody, human IgG1, kappa, V domains shown)
VH: EVQLVQSGAEVKKPGASVKVSCKASGYTFTSYIMHWVRQAPGQGLEWIGYINPYNDGTKYNEKFKGRVTLTRDKSTSTVYMELSSLRSEDTAVYYCARLGFTTRNAMDYWGQGTLVTVSS
VL: DIVMTQSPDSLAVSLGERATINCKSSQSLLNSGNQKNYLAWYQQKPGQPPKLLIYGASTRESGVPDRFTGSGSGTDFTLTISSLQAEDVAVYYCQNDHSYPFTFGQGTKLEIKR
notes: Humanized from QP207208
As for B4, a half-maximal response in assay [3] (EC50) required 0.165 mg/L. The max in [3] was 166000. Also, the FACS reading in assay [4] was found to be 166000; in assay [5], 99500; in assay [7], 5980; in assay [8] it was 19900; in [9], 46300; in [10], 97500. Besides, the FACS reading in assay [11] was determined as 160000; in [12], 732. In addition, the MFI in [6] was found to be 721000. Moreover, in assay [13], the “CLDN18.2/CLDN18.1 (MFI ratio)” value was found to be 709.

B5: QP14641462 (antibody, human IgG1, kappa, V domains shown)
VH: EVQLVQSGAEVKKPGASVKVSCKASGYTFTSYIMHWVRQAPGQGLEWIGYINPYNDGTKYNEKFKGRVTLTRDKSTSTVYMELSSLRSEDTAVYYCARLGFTTRNAMDYWGQGTLVTVSS
VL: DIVMTQSPDSLAVSLGERATINCKSSQSLLNSGNQKNYLAWYQQKPGQPPKLLIYGASTRESGVPDRFTGSGSGTDFTLTISSVQAEDVAVYYCQNDHSYPFTFGQGTKLEIKR
notes: Humanized from QP207208
Consider B5, for which, in assay [3], the concentration for a half-maximal effect (EC50) turned out to be 0.306 mg/L. For the same molecule, the max in assay [3] was found to be 224000. The FACS reading came out at 224000 in assay [4]; 117000 in assay [5]; 8450 in [7]; 15800 in assay [8]; 29300 in assay [9]; 93600 in [10]. Besides, the values for the FACS reading in assay [11] and in assay [12] were 170000 and 732, respectively. The molecule further gave an MFI in [6] of 758000. The “CLDN18.2/CLDN18.1 (MFI ratio)” value in assay [13] turned out to be 718.

B6: QP14641460 (antibody, human IgG1, kappa, V domains shown)
VH: EVQLVQSGAEVKKPGASVKVSCKASGYTFTSYIMHWVRQAPGQGLEWIGYINPYNDGTKYNEKFKGRVTLTRDKSTSTVYMELSSLRSEDTAVYYCARLGFTTRNAMDYWGQGTLVTVSS
VL: DIVMTQSPDSLAVSLGERATINCKSSQSLLNSGNQKNYLAWYQQKPGQPPKLLIYGASTRESGVPDRFSGSGSGTDFTLTISSLQAEDVAVYYCQNDHSYPFTFGQGTKLEIKR
notes: Humanized from QP207208
In turn, B6 gave an EC50 in assay [3] of 0.0936 mg/L. For the same molecule, the max in assay [3] was 191000. Moreover, the FACS reading is 191000 in assay [4]; 114000 in [5]; 6600 in [7]; 16200 in assay [8]; 44300 in assay [9]; 151000 in assay [10]. For the same molecule, the results for the FACS reading in assay [11] and in [12] were 146000 and 732, respectively. In addition, in assay [6], the MFI was 604000. Besides, the “CLDN18.2/CLDN18.1 (MFI ratio)” value in [13] is 579.

B7: QP14651460 (antibody, human IgG1, kappa, V domains shown)
VH: EVQLVQSGAEVKKPGASVKVSCKASGYTFTSYIMHWVRQAPGQGLEWIGYINPYNDGTKYNEKFKGRVTLTSDKSTSTVYMELSSLRSEDTAVYYCARLGFTTRNAMDYWGQGTLVTVSS
VL: DIVMTQSPDSLAVSLGERATINCKSSQSLLNSGNQKNYLAWYQQKPGQPPKLLIYGASTRESGVPDRFSGSGSGTDFTLTISSLQAEDVAVYYCQNDHSYPFTFGQGTKLEIKR
notes: Humanized from QP207208
In the case of B7, the response in assay [3] was half-maximal at 0.186 mg/L (EC50). In [3], the max is 189000. In addition, the FACS reading in [4] came to 189000; in [5], 174000; in assay [7], 7190; in assay [8], 19600; in assay [9] it was 50300; in assay [10] it was 134000. Moreover, the FACS reading turned out to be 219000 in assay [11] and 732 in assay [12]. The MFI in assay [6] came to 595000. The “CLDN18.2/CLDN18.1 (MFI ratio)” value in [13] came to 596.

B8: QP207208 (antibody, human IgG1, V domains shown)
VH: EVQLQQSGPELVKPGASVKMSCKASGYTFTSYIMHWVKQKPGQGLEWIGYINPYNDGTKYNEKFKGKATLTSDKSSSTVYMELSSLTSEDSAVYCCARLGFTTRNAMDYWGQGTSVTVSS
VL: DIVMTQSPSSLSVSAGEKVTMNCKSSQSLLNSGNQKNYLAWYQQKPGQPPKLLIYGASTRESGVPDRFTGSGSGTDFTLTISSVQAEDLAVYYCQNDHSYPFTFGSGTKLEIK
notes: Chimeric; also called 51A3; mouse-derived chimeric antibody QP207208
Take B8: in assay [3], the EC50 worked out at 0.267 mg/L. The max in [3] turned out to be 187000. Besides, the FACS reading in assay [4] came to 187000; in assay [5] it was 117000; in [7] it was 5090; in assay [8] it was 11500; in assay [9], 24700; in assay [10] it was 90200. Also, the FACS reading stood at 149000 in assay [11] and 732 in [12]. The MFI in assay [6] came to 627000. Further, the “CLDN18.2/CLDN18.1 (MFI ratio)” value in assay [13] is 476.

The values above are taken from patent publication US20230183352A1 (published 2023).
